Laboratory results published in patent publication US20240124528.

T1: IL-17RB-Flag (Flag-tagged IL-17RB, wild type)
T1 chain: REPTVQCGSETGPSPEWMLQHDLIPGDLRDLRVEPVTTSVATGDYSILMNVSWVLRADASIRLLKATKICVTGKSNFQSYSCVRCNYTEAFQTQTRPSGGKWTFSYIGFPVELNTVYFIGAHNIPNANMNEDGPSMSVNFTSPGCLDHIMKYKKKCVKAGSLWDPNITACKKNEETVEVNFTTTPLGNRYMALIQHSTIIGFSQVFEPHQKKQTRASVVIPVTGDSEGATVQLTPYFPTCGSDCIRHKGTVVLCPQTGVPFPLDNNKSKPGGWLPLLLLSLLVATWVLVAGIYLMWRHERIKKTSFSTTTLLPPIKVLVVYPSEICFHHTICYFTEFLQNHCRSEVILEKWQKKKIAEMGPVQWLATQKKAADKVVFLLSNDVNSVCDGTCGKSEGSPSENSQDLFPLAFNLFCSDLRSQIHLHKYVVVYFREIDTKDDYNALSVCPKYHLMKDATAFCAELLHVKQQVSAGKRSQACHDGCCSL

T2: interleukin-17 receptor B (IL-17RB), human, endogenous in pancreatic cancer cells
T2 chain: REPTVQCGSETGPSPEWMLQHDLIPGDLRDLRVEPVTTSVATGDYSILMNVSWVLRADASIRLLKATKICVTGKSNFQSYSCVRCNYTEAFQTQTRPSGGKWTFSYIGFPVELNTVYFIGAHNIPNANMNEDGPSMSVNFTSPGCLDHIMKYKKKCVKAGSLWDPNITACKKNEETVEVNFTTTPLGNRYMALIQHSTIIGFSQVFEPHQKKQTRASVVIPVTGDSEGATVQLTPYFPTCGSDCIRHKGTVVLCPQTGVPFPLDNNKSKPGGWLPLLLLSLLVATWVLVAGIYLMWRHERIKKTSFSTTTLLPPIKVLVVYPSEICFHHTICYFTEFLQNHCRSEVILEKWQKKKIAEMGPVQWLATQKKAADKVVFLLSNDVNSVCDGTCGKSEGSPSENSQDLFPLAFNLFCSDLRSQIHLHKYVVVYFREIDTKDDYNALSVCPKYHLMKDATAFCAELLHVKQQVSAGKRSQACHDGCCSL

T3: IL-17RB ΔV403˜S416 (Del-3), HA-tagged
T3 chain: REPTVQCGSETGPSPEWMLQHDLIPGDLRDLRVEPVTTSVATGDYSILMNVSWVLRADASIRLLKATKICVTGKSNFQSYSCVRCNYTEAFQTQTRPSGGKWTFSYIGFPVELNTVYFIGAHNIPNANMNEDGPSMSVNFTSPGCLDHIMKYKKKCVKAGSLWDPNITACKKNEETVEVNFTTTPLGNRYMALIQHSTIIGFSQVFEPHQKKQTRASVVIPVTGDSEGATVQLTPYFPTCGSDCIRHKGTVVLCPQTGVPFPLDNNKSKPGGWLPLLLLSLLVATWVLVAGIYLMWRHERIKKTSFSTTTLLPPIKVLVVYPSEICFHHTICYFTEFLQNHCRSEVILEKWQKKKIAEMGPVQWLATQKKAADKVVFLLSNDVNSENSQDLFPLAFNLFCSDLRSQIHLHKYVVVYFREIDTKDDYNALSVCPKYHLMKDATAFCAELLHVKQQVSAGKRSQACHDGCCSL


Tests used:
[1] = biological target: T1, IL-17RB-Flag (Flag-tagged IL-17RB, wild …)
[2] = biological target: T2, interleukin-17 receptor B (IL-17RB), …
[3] = biological target: T3, IL-17RB ΔV403˜S416 (Del-3), HA-tagged

| Protein | in vitro ubiquitination assay with recombinant E1, E2 and ubiquitin (FIG. 18D) [1] | IL-17RB phosphorylation at Y447 (immunoblot after MLK4 knockdown or knockout, FIG. 5A) [2] | Y447 phosphorylation of IL-17RB (immunoblot with anti-P-Y447, FIG. 5D) [3] |
| --- | --- | --- | --- |
| HA-TRIM56 (TRIM56-HA, HA-tagged tripartite-motif 56) (protein) MVSHGSSPSLLEALSSDFLACKICLEQLRAPKTLPCLHTYCQDCLAQLADGGRVRCPECRETVPVPPEGVASFKTNFFVNGLLDLVKARACGDLRAGKPACALCPLVGGTSTGGPATARCLDCADDLCQACADGHRCTRQTHTHRVVDLVGYRAGWYDEEARERQAAQCPQHPGEALRFLCQPCSQLLCRECRLDPHLDHPCLPLAEAVRARRPGLEGLLAGVDNNLVELEAARRVEKEALARLREQAARVGTQVEEAAEGVLRALLAQKQEVLGQLRAHVEAAEEAARERLAELEGREQVARAAAAFARRVLSLGREAEILSLEGAIAQRLRQLQGCPWAPGPAPCLLPQLELHPGLLDKNCHLLRLSFEEQQPQKDGGKDGAGTQGGEESQSRREDEPKTERQGGVQPQAGDGAQTPKEEKAQTTREEGAQTLEEDRAQTPHEDGGPQPHRGGRPNKKKKFKGRLKSISREPSPALGPNLDGSGLLPRPIFYCSFPTRMPGDKRSPRITGLCPFGPREILVADEQNRALKRFSLNGDYKGTVPVPEGCSPCSVAALQSAVAFSASARLYLINPNGEVQWRRALSLSQASHAVAALPSGDRVAVSVAGHVEVYNMEGSLATRFIPGGKASRGLRALVFLTTSPQGHFVGSDWQQNSVVICDGLGQVVGEYKGPGLHGCQPGSVSVDKKGYIFLTLREVNKVVILDPKGSLLGDFLTAYHGLEKPRVTTMVDGRYLVVSLSNGTIHIFRVRSPDS | purified TRIM56 could ubiquitinate IL-17RB at K470 in vitro |  |  |
| mixed-lineage kinase 4 (MLK4), endogenous (protein) MALRGAAGATDTPVSSAGGAPGGSASSSSTSSGGSASAGAGLWAALYDYEARGEDELSLRRGQLVEVLSQDAAVSGDEGWWAGQVQRRLGIFPANYVAPCRPAASPAPPPSRPSSPVHVAFERLELKELIGAGGFGQVYRATWQGQEVAVKAARQDPEQDAAAAAESVRREARLFAMLRHPNIIELRGVCLQQPHLCLVLEFARGGALNRALAAANAAPDPRAPGPRRARRIPPHVLVNWAVQIARGMLYLHEEAFVPILHRDLKSSNILLLEKIEHDDICNKTLKITDFGLAREWHRTTKMSTAGTYAWMAPEVIKSSLFSKGSDIWSYGVLLWELLTGEVPYRGIDGLAVAYGVAVNKLTLPIPSTCPEPFAKLMKECWQQDPHIRPSFALILEQLTAIEGAVMTEMPQESFHSMQDDWKLEIQQMFDELRTKEKELRSREEELTRAALQQKSQEELLKRREQQLAEREIDVLERELNILIFQLNQEKPKVKKRKGKFKRSRLKLKDGHRISLPSDFQHKITVQASPNLDKRRSLNSSSSSPPSSPTMMPRLRAIQLTSDESNKTWGRNTVFRQEEFEDVKRNFKKKGCTWGPNSIQMKDRTDCKERIRPLSDGNSPWSTILIKNQKTMPLASLFVDQPGSCEEPKLSPDGLEHRKPKQIKLPSQAYIDLPLGKDAQRENPAEAESWEEAASANAATVSIEMTPTNSLSRSPQRKKTESALYGCTVLLASVALGLDLRELHKAQAAEEPLPKEEKKKREGIFQRASKSRRSASPPTSLPSTCGEASSPPSLPLSSALGILSTPSFSTKCLLQMDSEDPLVDSAPVTCDSEMLTPDFCPTAPGSGREPALMPRLDTDCSVSRNLPSSFLQQTCGNVPYCASSKHRPSHHRRTMSDGNPTPTGATIISATGASALPLCPSPAPHSHLPREVSPKKHSTVHIVPQRRPASLRSRSDLPQAYPQTAVSQLAQTACVVGRPGPHPTQFLAAKERTKSHVPSLLDADVEGQSRDYTVPLCRMRSKTSRPSIYELEKEFLS |  | either knockdown (left) or knockout (right) of MLK4 nearly completely abolished IL-17RB phosphorylation at Y447 | Del-3 failed to bind to MLK4 and phosphorylate Y447 |
